Publication PMC9482650, “Quantitative fragmentomics allow affinity mapping of interactomes” (Nature Communications, 2022)

T1: LRRC7, Q96NW7
T1 sequence (Q96NW7 1440-1537, limits assumed, looked up): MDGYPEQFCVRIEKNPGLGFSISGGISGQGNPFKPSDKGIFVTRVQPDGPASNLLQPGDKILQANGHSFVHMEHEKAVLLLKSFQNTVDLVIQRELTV

T2: DFNB31_1, Q9P202
T2 sequence (Q9P202 135-233, limits assumed, looked up): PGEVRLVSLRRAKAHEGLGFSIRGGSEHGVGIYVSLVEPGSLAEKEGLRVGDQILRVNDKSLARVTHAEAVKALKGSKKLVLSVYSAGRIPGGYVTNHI

T3: DLG3_3, Q92796
T3 sequence (Q92796 374-475, limits assumed, looked up): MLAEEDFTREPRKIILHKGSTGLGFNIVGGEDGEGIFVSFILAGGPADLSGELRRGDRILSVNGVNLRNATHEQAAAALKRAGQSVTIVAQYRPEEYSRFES

T4: SHANK1, Q9Y566
T4 sequence (Q9Y566 658-767, limits assumed, looked up): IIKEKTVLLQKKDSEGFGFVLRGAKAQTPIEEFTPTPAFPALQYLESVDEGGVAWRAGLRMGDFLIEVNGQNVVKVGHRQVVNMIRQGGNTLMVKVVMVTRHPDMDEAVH

T5: ARHGAP21, Q5T5U3
T5 sequence (Q5T5U3 45-169, limits assumed, looked up): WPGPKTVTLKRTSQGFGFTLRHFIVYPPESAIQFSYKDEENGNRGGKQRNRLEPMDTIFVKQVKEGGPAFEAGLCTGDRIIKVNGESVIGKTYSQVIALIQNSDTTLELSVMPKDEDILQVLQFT

T6: SNTG2, Q9NY99
T6 sequence (Q9NY99 68-166, limits assumed, looked up): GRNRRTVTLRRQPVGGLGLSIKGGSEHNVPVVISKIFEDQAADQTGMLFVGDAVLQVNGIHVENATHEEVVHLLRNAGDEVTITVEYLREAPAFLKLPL

T7: SYNJ2BP, P57105
T7 sequence (P57105 8-110, limits assumed, looked up): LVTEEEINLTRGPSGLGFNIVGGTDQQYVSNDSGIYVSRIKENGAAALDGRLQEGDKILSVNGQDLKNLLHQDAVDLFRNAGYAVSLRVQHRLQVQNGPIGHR

T8: MPP2, Q14168
T8 sequence (Q14168 180-250, limits assumed, looked up): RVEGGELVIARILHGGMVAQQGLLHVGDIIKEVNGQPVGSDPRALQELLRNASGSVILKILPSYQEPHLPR

T9: DLG3_2, Q92796
T9 sequence (Q92796 221-321, limits assumed, looked up): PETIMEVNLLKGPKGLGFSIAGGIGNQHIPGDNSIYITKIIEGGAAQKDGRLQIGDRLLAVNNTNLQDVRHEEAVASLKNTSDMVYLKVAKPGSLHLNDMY

T10: PTPN13_1, Q12923
T10 sequence (Q12923 1088-1188, limits assumed, looked up): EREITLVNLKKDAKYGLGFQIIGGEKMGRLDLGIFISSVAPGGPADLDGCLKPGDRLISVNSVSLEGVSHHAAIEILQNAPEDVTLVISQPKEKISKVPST

T11: SIPA1L2, Q9P2F8
T11 sequence (Q9P2F8 945-1036, limits assumed, looked up): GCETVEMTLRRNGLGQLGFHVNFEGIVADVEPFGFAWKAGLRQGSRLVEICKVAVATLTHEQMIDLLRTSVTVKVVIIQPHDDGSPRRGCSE

T12: TJP3_3, O95049
T12 sequence (O95049 375-456, limits assumed, looked up): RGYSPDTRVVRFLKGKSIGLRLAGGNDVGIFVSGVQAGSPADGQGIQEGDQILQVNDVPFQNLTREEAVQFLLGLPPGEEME

B1: PTEN, P60484 (peptide)
chain: DEDQHTQITKV
B2: SLCO1C1, Q9NYB5 (peptide)
chain: NYWPGKETQL

What follows are binders tested against T1, LRRC7, Q96NW7 (assay: holdup assay). Details: plain residues with an end cap or a label only (N-terminal biotin on a linker: ttds).
Set-up: key: below the threshold = too weak to quantify, mostly under pKd 3.1 to 4
In the case of B1, the pKd is reported as “below the threshold”.
B2 gave a pKd of 4.31.

The binders below were run against T2, DFNB31_1, Q9P202 (assay: holdup assay). Details: plain residues with an end cap or a label only (N-terminal biotin on a linker: ttds).
Set-up: key: below the threshold = too weak to quantify, mostly under pKd 3.1 to 4
With B1 the pKd was 3.86.
Binder B2 has a pKd of 4.44.

Each binder was assayed against DLG4_2, P78352 (assay: holdup assay). Details: plain residues with an end cap or a label only (N-terminal biotin on a linker: ttds).
DLG4_2, P78352, sequence (P78352 155-259): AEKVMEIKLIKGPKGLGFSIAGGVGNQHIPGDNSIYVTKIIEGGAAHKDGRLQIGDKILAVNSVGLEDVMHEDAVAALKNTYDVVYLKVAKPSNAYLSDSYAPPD
Set-up: key: below the threshold = too weak to quantify, mostly under pKd 3.1 to 4
Binder B1 has a pKd of 3.67.
B2 showed a pKd of 4.78.

What follows are binders tested against NHERF4_2, Q86UT5 (assay: holdup assay). Details: plain residues with an end cap or a label only (N-terminal biotin on a linker: ttds).
NHERF4_2, Q86UT5, sequence (Q86UT5 220-308): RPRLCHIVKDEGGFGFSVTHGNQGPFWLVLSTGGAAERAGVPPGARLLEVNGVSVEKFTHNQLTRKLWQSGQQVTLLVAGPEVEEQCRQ
Set-up: key: below the threshold = too weak to quantify, mostly under pKd 3.1 to 4
For B1, the pKd was “below the threshold”.
In the case of B2, the pKd is reported as “below the threshold”.

The binders below were run against GRASP, Q7Z6J2 (assay: holdup assay). Details: plain residues with an end cap or a label only (N-terminal biotin on a linker: ttds).
GRASP, Q7Z6J2, sequence (Q7Z6J2 96-193): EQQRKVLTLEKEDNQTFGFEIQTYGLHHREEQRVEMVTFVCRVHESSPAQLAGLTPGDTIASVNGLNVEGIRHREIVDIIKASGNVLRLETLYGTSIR
Set-up: key: below the threshold = too weak to quantify, mostly under pKd 3.1 to 4
B1 showed a pKd of 4.72.
For B2, the pKd was “below the threshold”.

These binders were tested against T3, DLG3_3, Q92796 (assay: holdup assay). Details: plain residues with an end cap or a label only (N-terminal biotin on a linker: ttds).
Set-up: key: below the threshold = too weak to quantify, mostly under pKd 3.1 to 4
Work on B1 yielded a pKd of 3.71.
B2 showed a pKd of 4.25.

Each binder was assayed against T4, SHANK1, Q9Y566 (assay: holdup assay). Details: plain residues with an end cap or a label only (N-terminal biotin on a linker: ttds).
Set-up: key: below the threshold = too weak to quantify, mostly under pKd 3.1 to 4
B1 showed a pKd of 4.35.
B2 gave a pKd of 3.81.

Each binder was assayed against T5, ARHGAP21, Q5T5U3 (assay: holdup assay). Details: plain residues with an end cap or a label only (N-terminal biotin on a linker: ttds).
Set-up: key: below the threshold = too weak to quantify, mostly under pKd 3.1 to 4
For B1, the pKd was “below the threshold”.
In the case of B2, the pKd is reported as 3.94.

These binders were tested against T6, SNTG2, Q9NY99 (assay: holdup assay). Details: plain residues with an end cap or a label only (N-terminal biotin on a linker: ttds).
Set-up: key: below the threshold = too weak to quantify, mostly under pKd 3.1 to 4
With B1 the pKd was 4.03.
With B2 the pKd was 5.28.

The binders below were run against AHNAK1, Q09666 (assay: holdup assay). Details: plain residues with an end cap or a label only (N-terminal biotin on a linker: ttds).
AHNAK1, Q09666, sequence (Q09666 4-100): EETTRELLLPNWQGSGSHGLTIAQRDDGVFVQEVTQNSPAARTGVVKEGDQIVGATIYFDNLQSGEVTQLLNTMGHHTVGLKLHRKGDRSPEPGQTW
Set-up: key: below the threshold = too weak to quantify, mostly under pKd 3.1 to 4
With B1 the pKd was “below the threshold”.
B2 was tested, and the pKd was “below the threshold”.

These binders were tested against LNX1_2, Q8TBB1 (assay: holdup assay). Details: plain residues with an end cap or a label only (N-terminal biotin on a linker: ttds).
LNX1_2, Q8TBB1, sequence (Q8TBB1 371-470): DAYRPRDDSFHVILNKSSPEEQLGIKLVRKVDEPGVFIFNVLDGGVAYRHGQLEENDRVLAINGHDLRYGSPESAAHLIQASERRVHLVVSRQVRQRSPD
Set-up: key: below the threshold = too weak to quantify, mostly under pKd 3.1 to 4
B1 gave a pKd of 3.77.
B2 was tested, and the pKd was “below the threshold”.

Each binder was assayed against T7, SYNJ2BP, P57105 (assay: holdup assay). Details: plain residues with an end cap or a label only (N-terminal biotin on a linker: ttds).
Set-up: key: below the threshold = too weak to quantify, mostly under pKd 3.1 to 4
B1 showed a pKd of 3.65.
B2 was tested, and the pKd was 5.4.

What follows are binders tested against Inadl_6, Q8NI35 (assay: holdup assay). Details: plain residues with an end cap or a label only (N-terminal biotin on a linker: ttds).
Inadl_6, Q8NI35, sequence (Q8NI35 1058-1167): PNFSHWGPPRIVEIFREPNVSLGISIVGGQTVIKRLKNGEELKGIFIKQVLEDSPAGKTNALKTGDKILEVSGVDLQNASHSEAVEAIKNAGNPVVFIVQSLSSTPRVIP
Set-up: key: below the threshold = too weak to quantify, mostly under pKd 3.1 to 4
In the case of B1, the pKd is reported as 3.82.
Work on B2 yielded a pKd of 4.61.

Each binder was assayed against PTPN3, P26045 (assay: holdup assay). Details: plain residues with an end cap or a label only (N-terminal biotin on a linker: ttds).
PTPN3, P26045, sequence (P26045 505-587): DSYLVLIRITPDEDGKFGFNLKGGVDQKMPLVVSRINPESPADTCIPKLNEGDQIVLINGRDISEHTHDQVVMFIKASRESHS
Set-up: key: below the threshold = too weak to quantify, mostly under pKd 3.1 to 4
B1 gave a pKd of 3.94.
For B2, the pKd was 5.42.

The binders below were run against SCRIB_3, Q14160 (assay: holdup assay). Details: plain residues with an end cap or a label only (N-terminal biotin on a linker: ttds).
SCRIB_3, Q14160, sequence (Q14160 999-1103): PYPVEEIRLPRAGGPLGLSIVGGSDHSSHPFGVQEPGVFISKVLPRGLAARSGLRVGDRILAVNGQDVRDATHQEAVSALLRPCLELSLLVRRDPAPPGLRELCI
Set-up: key: below the threshold = too weak to quantify, mostly under pKd 3.1 to 4
B1 gave a pKd of 3.94.
Work on B2 yielded a pKd of 5.6.

Each binder was assayed against T8, MPP2, Q14168 (assay: holdup assay). Details: plain residues with an end cap or a label only (N-terminal biotin on a linker: ttds).
Set-up: key: below the threshold = too weak to quantify, mostly under pKd 3.1 to 4
For B1, the pKd was “below the threshold”.
With B2 the pKd was “below the threshold”.

Each binder was assayed against T9, DLG3_2, Q92796 (assay: holdup assay). Details: plain residues with an end cap or a label only (N-terminal biotin on a linker: ttds).
Set-up: key: below the threshold = too weak to quantify, mostly under pKd 3.1 to 4
Work on B1 yielded a pKd of 4.04.
B2 showed a pKd of 4.88.

The binders below were run against SCRIB_1, Q14160 (assay: holdup assay). Details: plain residues with an end cap or a label only (N-terminal biotin on a linker: ttds).
SCRIB_1, Q14160, sequence (Q14160 718-814): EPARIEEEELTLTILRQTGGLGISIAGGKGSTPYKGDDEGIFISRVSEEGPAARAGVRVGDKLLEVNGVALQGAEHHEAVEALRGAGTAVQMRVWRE
Set-up: key: below the threshold = too weak to quantify, mostly under pKd 3.1 to 4
B1 gave a pKd of 4.83.
B2 gave a pKd of 5.23.

Each binder was assayed against T10, PTPN13_1, Q12923 (assay: holdup assay). Details: plain residues with an end cap or a label only (N-terminal biotin on a linker: ttds).
Set-up: key: below the threshold = too weak to quantify, mostly under pKd 3.1 to 4
With B1 the pKd was “below the threshold”.
With B2 the pKd was “below the threshold”.

The binders below were run against FRMPD3, Q5JV73 (assay: holdup assay). Details: plain residues with an end cap or a label only (N-terminal biotin on a linker: ttds).
FRMPD3, Q5JV73, sequence (Q5JV73 12-100): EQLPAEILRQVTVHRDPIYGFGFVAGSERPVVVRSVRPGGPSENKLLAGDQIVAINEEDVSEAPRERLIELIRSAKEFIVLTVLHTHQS
Set-up: key: below the threshold = too weak to quantify, mostly under pKd 3.1 to 4
For B1, the pKd was “below the threshold”.
For B2, the pKd was “below the threshold”.

What follows are binders tested against NHERF2_2, Q15599 (assay: holdup assay). Details: plain residues with an end cap or a label only (N-terminal biotin on a linker: ttds).
NHERF2_2, Q15599, sequence (Q15599 142-238): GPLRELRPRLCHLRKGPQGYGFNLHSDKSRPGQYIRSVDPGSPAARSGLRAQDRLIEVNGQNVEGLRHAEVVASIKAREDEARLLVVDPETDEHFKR
Set-up: key: below the threshold = too weak to quantify, mostly under pKd 3.1 to 4
For B1, the pKd was 4.29.
B2 showed a pKd of 4.69.

What follows are binders tested against PDZRN4_1, Q6ZMN7 (assay: holdup assay). Details: plain residues with an end cap or a label only (N-terminal biotin on a linker: ttds).
PDZRN4_1, Q6ZMN7, sequence (Q6ZMN7 213-318): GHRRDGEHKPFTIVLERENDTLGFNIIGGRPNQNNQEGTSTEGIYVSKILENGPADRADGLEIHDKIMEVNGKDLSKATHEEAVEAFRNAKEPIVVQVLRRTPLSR
Set-up: key: below the threshold = too weak to quantify, mostly under pKd 3.1 to 4
With B1 the pKd was 3.62.
In the case of B2, the pKd is reported as 5.47.

What follows are binders tested against T11, SIPA1L2, Q9P2F8 (assay: holdup assay). Details: plain residues with an end cap or a label only (N-terminal biotin on a linker: ttds).
Set-up: key: below the threshold = too weak to quantify, mostly under pKd 3.1 to 4
For B1, the pKd was “below the threshold”.
In the case of B2, the pKd is reported as “below the threshold”.

Each binder was assayed against DLG2_2, Q15700 (assay: holdup assay). Details: plain residues with an end cap or a label only (N-terminal biotin on a linker: ttds).
DLG2_2, Q15700, sequence (Q15700 189-283): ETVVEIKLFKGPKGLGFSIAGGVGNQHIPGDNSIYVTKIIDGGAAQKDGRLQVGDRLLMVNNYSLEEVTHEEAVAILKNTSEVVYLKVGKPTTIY
Set-up: key: below the threshold = too weak to quantify, mostly under pKd 3.1 to 4
With B1 the pKd was 3.55.
In the case of B2, the pKd is reported as 4.9.

The binders below were run against SCRIB_2, Q14160 (assay: holdup assay). Details: plain residues with an end cap or a label only (N-terminal biotin on a linker: ttds).
SCRIB_2, Q14160, sequence (Q14160 857-960): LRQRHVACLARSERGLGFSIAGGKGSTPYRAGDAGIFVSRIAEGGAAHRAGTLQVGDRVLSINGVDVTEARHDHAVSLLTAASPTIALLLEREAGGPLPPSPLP
Set-up: key: below the threshold = too weak to quantify, mostly under pKd 3.1 to 4
Work on B1 yielded a pKd of 3.73.
For B2, the pKd was 4.24.

What follows are binders tested against T12, TJP3_3, O95049 (assay: holdup assay). Details: plain residues with an end cap or a label only (N-terminal biotin on a linker: ttds).
Set-up: key: below the threshold = too weak to quantify, mostly under pKd 3.1 to 4
For B1, the pKd was “below the threshold”.
With B2 the pKd was “below the threshold”.
